From paper PMC3397948, “Cytoplasmic Sulfurtransferases in the Purple Sulfur Bacterium Allochromatium vinosum: Evidence for Sulfur Transfer from DsrEFH to DsrC” (PLoS ONE, 2012)
“And” between values parts separate entries of the source, which are not always exact repeats. Identical values can stand only once. Each block holds one molecule with its values, some of them ahead of it.

Legend:
[1] = target: T1, DsrEFH (Allochromatium vinosum, UniProt O87896); assay: MALDI-TOF mass spectrometry, mass increase (persulfide); format: binding; conditions: 2 mM NaSH, 1 h, 30°C, 50 mM Tris-HCl pH 7.5, 100 mM NaCl; covalent; at DsrE-Cys78
T1 construct: gene dsrE; recombinant, amino-terminal His-tag; alpha2beta2gamma2 heterohexamer; with Intracellular sulfur oxidation protein DsrF; Intracellular sulfur oxidation protein DsrH

[2] = target: T2, DsrEFH from Allochromatium vinosum (DsrE2F2H2 heterohexamer), wild type (Allochromatium vinosum, UniProt O87896 1-130; O87897 1-136; O87898 1-102); assay: native gel or EMSA; Blue-native PAGE (10-15%), 4°C, 6 mA; DsrEFH pre-incubated with DsrC in 1:2 ratio as for the native gel; masses from a calibration curve of standards; conditions: both partners purified
T2 construct: DsrE, subunit of DsrEFH, Allochromatium vinosum; conserved active-site Cys78; DsrF, subunit of DsrEFH, Allochromatium vinosum; DsrH, subunit of DsrEFH, Allochromatium vinosum; conserved Cys20; source: overproduced and purified as described earlier [22], [8], [3]; not shown: His-tag (subunit inferred: DsrE), N-terminal, kept; copies: 2 + 2 + 2
T2 sequence (looked up) 1: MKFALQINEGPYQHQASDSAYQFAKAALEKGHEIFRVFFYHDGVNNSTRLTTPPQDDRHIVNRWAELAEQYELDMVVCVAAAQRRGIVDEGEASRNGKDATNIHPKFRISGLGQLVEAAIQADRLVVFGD
T2 sequence (looked up) 2: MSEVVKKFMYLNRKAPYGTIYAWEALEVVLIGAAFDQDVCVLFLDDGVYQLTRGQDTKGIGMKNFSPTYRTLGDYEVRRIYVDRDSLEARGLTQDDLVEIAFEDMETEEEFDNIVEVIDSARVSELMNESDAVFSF
T2 sequence (looked up) 3: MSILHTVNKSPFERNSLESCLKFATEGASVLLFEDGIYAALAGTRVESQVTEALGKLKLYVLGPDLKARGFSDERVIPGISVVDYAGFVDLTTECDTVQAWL

[3] = target: T2, DsrEFH from Allochromatium vinosum …; assay: dynamic light scattering; DsrEFH (2 mg/ml) with or without DsrC (0.8 mg/ml), same ratio and conditions as for native gels, 30°C; apparent molecular mass from hydrodynamic diameter; conditions: both partners purified

Molecule: S [sulfide]
MALDI-TOF mass spectrometry, mass increase (persulfide) [1]: The persulfuration was attained by incubation with sulfide as well as with cysteine and IscS.

stoichiometry N [2]: 1 DsrC per DsrE2F2H2 heterohexamer and 2 DsrC per DsrE2F2H2 heterohexamer
stoichiometry N [3]: 1 DsrC:DsrEFH
B1: DsrC from Allochromatium vinosum, wild type (natural protein, UniProt O87899 1-112, looked up)
chain: MADTIEVDGKQFAVDEEGYLSNLNDWVPGVADVMAKQDNLELTEEHWDIINFLREYYEEYQIAPAVRVLTKAVGKKLGKEKGNSKYLYSLFPYGPAKQACRFAGLPKPTGCV
notes: DsrC, Allochromatium vinosum; conserved Cys100 and Cys111 (Cys111 in the penultimate position of the protein); Reduced with 25 uM TCEP before SPR; also called DsrC wild type; DsrC wt; source: overproduced and purified as described earlier [22], [8], [3]; not shown: His-tag, N-terminal, kept
